# From PMC3777173
# Assays:
# [1] = molecular target: EDAvidin (fusion protein between the extra domain A from fibronectin and streptavidin); experiment: SDS-PAGE of the sample not boiled against boiled; purified EDAvidin, nondenatured against denatured (boiled), Coomassie blue
# biotinylated ovalbumin = biotinylated ovalbumin (UniProt P01012); experiment: SPR; ProteOn XPR36; OVA-biot covalently immobilised on a GLC chip (sulfo-NHS/EDC); EDAvidin in 2-fold dilutions from 100 nM, then (after regeneration with 2 μM biotin) streptavidin; PBS, 0.005% Tween 20, pH 7.4; 30 μL/min; referenced against nonbiotinylated OVA; Langmuir model
# Sequence of UniProt P01012 (P01012 whole entry): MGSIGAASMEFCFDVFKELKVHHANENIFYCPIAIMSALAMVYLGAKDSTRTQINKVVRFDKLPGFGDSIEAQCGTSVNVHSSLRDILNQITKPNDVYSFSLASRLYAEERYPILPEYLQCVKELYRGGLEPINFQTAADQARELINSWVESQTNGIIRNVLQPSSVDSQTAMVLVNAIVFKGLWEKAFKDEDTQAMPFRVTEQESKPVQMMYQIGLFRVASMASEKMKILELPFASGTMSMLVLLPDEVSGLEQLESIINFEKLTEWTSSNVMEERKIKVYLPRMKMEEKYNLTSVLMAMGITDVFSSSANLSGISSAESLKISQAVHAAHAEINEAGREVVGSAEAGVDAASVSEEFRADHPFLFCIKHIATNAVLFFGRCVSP
substance,measurement,setting,value
EDAvidin (fusion protein between the extra domain A from fibronectin and streptavidin),stoichiometry N,[1],4
same,Kd,biotinylated ovalbumin,0.023 pM
